Assay results as given in patent US20080306007A1, “AGENTS FOR PROPHYLAXIS OR TREATMENT OF NEUROLOGICAL RELATED DISEASES AND CONDITIONS” (Newcastle Innovation Limited, priority 2007, published 2008).
One block for each substance: values may come before it.

Legend:
[1] = target: dynamin I (native, from rat brain synaptosomes; total pool) (rat) (UniProt P21575); experiment: GST pull-down from synaptosome lysate without salt
[2] = target: amphiphysin I (native, from rat brain lysate) (rat) (UniProt O08838); experiment: peptide competition in GST-DynI-PRD pull-down from rat brain lysate; the filing later calls this an experimental artefact
amphiphysin I (native, from rat brain lysate) (rat), sequence (O08838 whole entry): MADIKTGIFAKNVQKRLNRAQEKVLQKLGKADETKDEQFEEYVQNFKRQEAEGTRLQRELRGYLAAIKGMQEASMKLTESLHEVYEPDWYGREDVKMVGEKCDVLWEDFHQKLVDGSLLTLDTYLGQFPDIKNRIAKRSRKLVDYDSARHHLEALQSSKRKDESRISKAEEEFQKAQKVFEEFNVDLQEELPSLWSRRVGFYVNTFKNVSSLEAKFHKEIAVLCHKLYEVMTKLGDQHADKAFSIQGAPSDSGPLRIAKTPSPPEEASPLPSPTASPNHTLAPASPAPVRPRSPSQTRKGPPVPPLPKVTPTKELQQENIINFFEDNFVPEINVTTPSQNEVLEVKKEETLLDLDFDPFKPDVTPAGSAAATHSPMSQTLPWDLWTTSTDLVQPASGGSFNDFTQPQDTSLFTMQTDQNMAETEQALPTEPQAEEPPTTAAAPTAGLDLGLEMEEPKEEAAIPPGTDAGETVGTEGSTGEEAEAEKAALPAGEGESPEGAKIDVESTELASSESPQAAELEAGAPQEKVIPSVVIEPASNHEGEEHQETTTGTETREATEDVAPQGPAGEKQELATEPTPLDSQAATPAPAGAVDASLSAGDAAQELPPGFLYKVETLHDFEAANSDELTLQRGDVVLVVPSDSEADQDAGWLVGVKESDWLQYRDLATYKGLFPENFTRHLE

[3] = target: phospho-dynamin I (native, phosphorylated in vivo, from rat brain synaptosomes) (rat) (UniProt P21575); experiment: GST pull-down from 32Pi-labelled synaptosome lysate, 150 mM NaCl, quantitative analysis of autoradiograph against protein
phospho-dynamin I (native, phosphorylated in vivo, from rat brain synaptosomes) (rat), sequence (P21575 whole entry): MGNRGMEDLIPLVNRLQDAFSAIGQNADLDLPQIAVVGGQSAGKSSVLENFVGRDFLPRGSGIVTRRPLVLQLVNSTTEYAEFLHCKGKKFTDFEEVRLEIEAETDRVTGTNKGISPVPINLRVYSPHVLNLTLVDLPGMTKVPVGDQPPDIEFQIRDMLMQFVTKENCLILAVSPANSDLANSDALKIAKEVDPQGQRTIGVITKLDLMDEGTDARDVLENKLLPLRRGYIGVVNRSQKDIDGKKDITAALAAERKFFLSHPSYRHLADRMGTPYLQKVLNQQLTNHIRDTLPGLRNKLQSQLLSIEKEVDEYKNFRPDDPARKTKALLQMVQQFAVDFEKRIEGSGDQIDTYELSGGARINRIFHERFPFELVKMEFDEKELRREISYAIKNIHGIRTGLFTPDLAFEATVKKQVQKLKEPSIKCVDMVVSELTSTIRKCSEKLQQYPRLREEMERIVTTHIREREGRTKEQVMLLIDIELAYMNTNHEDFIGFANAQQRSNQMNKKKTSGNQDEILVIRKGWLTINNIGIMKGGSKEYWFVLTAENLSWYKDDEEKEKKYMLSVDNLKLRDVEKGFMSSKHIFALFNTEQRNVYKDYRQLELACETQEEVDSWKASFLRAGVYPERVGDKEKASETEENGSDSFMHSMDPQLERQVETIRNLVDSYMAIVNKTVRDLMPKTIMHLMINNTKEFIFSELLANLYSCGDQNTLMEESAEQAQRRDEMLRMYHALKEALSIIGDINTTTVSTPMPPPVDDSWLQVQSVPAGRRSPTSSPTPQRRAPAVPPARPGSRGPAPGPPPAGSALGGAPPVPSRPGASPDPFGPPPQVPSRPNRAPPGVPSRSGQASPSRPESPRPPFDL

[4] = target: dynamin I (native, from rat brain synaptosomes; total pool) (rat) (UniProt P21575); experiment: sequential GST pull-downs from synaptosome lysate; molar ratio GST-AmphI-SH3:dynamin above 2:1

dynamin I (native, from rat brain synaptosomes; total pool) (rat), sequence (P21575 whole entry): as above
GST-EndoI-SH3, sequence (O35179 290-349): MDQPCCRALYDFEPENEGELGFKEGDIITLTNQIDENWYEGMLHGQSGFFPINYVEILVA

Substance: DynI783-796 peptide
fold higher peptide concentration needed for inhibition [2]: 10 fold

Substance: full-length GST-fusion protein of endophilin I (EndoI-FL)
binding to phospho-dynamin I relative to the total dynamin I bound to the beads (% of AmphI-SH3 control) [3]: 91

Substance: full-length GST-fusion protein of syndapin I (SdpnI-FL)
binding to phospho-dynamin I relative to the total dynamin I bound to the beads (% of AmphI-SH3 control) [3]: 56

Second part, the substance after the results:

percent of synaptosomal dynamin I extracted [1]: > 95%
Substance: GST-EndoI-SH3

residual dynamin recovered in a second sequential pull-down [4]: < 1%
Substance: GST-AmphI-SH3
